# Source: patent US20040176568A1 (GENERAL HOSPITAL, published 2004)
# Where two headings read alike, the source gives them in different places. No end group written: not given here.
# T1: human PTH-1 receptor (human, UniProt Q03431 27-593)
# T1 sequence (looked up): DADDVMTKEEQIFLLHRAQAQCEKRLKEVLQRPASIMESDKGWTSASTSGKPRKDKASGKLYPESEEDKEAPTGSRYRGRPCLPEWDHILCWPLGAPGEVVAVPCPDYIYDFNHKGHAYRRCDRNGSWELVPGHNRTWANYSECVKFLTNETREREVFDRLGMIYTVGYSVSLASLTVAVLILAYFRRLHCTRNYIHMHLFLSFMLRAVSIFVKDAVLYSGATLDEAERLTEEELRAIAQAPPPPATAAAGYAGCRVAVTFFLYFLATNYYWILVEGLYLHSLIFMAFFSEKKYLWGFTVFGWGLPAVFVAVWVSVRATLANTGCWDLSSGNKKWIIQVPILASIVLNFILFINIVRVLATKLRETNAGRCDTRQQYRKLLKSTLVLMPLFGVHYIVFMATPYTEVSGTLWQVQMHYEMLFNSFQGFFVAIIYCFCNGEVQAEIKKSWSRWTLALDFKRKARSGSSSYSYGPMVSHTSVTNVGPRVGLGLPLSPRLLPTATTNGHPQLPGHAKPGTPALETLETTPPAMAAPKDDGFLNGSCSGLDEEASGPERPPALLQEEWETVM
# T2: rat PTH-1 receptor (rat, UniProt P25961 27-591)
# T2 construct: whole, on cells; recombinant receptor on cells; also called rat PTH/PTHrP receptor
# T2 sequence (looked up): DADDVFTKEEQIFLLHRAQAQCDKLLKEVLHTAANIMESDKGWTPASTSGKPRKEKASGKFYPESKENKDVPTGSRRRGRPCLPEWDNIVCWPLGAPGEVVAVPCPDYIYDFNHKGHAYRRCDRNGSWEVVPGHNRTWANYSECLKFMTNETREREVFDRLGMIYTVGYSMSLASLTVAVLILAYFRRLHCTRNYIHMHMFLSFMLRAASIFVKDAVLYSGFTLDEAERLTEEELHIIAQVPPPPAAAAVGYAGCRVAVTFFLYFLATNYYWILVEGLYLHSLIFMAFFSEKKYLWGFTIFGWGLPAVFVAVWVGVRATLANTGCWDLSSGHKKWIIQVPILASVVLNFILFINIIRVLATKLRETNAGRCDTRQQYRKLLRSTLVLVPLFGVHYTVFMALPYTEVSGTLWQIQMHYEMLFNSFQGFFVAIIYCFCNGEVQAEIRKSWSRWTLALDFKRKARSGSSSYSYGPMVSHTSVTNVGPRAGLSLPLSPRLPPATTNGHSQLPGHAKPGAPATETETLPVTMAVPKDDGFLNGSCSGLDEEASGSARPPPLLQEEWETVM
# Experiments:
# human PTH-1 receptor [1] = target: T1, human PTH-1 receptor; assay: cell-based or functional assay
# human PTH-1 receptor [2] = target: T1, human PTH-1 receptor; assay: radioligand binding, HKRK B7 cells (human PTH-1 receptor)
# human PTH-1 receptor [3] = target: T1, human PTH-1 receptor; assay: cell-based or functional assay; remark: listed apart in the source
# human PTH-1 receptor [4] = target: T1, human PTH-1 receptor; assay: cell-based or functional assay; remark: listed apart in the source
# human PTH-1 receptor [5] = target: T1, human PTH-1 receptor; assay: radioligand competition, HKRK B7 cells (human PTH-1 receptor)
# Description: (§1) Cell layers were washed three times before solubilization for determination of cell-associated radioactivity.
# rat PTH-1 receptor [6] = target: T2, rat PTH-1 receptor; assay: radioligand competition, EW5 cells (rat PTH-1 receptor)
# Description: as §1
# rat PTH-1 receptor [7] = target: T2, rat PTH-1 receptor; assay: cell-based or functional assay
# rat PTH-1 receptor [8] = target: T2, rat PTH-1 receptor; assay: radioligand competition, EW5 cells (rat) against HKRK B7 cells (human)
# Description: as §1
molecule,measurement,setting,value
hPTHrP(1-36) (from UniProt P12272 37-72) (peptide),"PLC activation, percent of basal at 1000 nM peptide, HKRK B7 cells (percent of basal)",human PTH-1 receptor [1],178
desamino-hPTHrP(1-36) (from UniProt P12272 37-72) (peptide),"PLC activation, percent of basal at 1000 nM peptide, HKRK B7 cells (percent of basal)",human PTH-1 receptor [1],101
"^125I-[Nle^8,21, Tyr^34]rat PTH-(1-34) (from UniProt P04089 32-65) (peptide)","cell-associated radioactivity, basal (no competitor)",human PTH-1 receptor [2],25500 cpm/well
desamino[Ala^1]hPTH-(1-34) (from UniProt P01270 32-65) (peptide),"PLC Activity (% Basal), 1000 nM peptide, transfected HEK-293 cells",human PTH-1 receptor [1],106 % Basal
[Tyr^0]hPTH-(1-34) (from UniProt P01270 32-65) (peptide),"PLC activity, percent of basal at 1000 nM peptide (percent of basal)",human PTH-1 receptor [1],105
desamino[Gly^1]hPTH-(1-34) (from UniProt P01270 32-65) (peptide),"PLC Activity (% Basal), 1000 nM peptide, transfected HEK-293 cells",human PTH-1 receptor [1],108 % Basal
"AVSEIQLMHNLGKHLNSMRRVEWLRKK-NH2 [[Ala^1,Arg^19]hPTH-(1-27)]",fold improvement of EC50 for AC activation over hPTH-(1-27),human PTH-1 receptor [3],10 fold
SVSEIQLMHNLGKHLNSMERVEWLRKKL-NH2 [hPTH-(1-28)],"EC50 of AC activation, HKRK B7 cells",human PTH-1 receptor [3],1 nM
same,"EC50 of PLC activation, HKRK B7 cells",human PTH-1 receptor [3],6000 nM
same,fold loss of PLC potency against hPTH-(1-29),human PTH-1 receptor [3],~5 fold
same,"PLC Activity (% Basal), 1000 nM peptide, transfected HEK-293 cells",human PTH-1 receptor [4],305 % Basal
same,IC50,human PTH-1 receptor [5],1000 nM
same,binding result,rat PTH-1 receptor [6],binds
AVSEIQLMHNLGKHLNSMERVEWLRKKL-NH2 [[Ala^1]hPTH-(1-28)],"EC50 for PLC activation, HKRK B7 cells",human PTH-1 receptor [3],1000 nM
"AVSEIQLMHNLGKHLNSMRRVEWLRKKL-NH2 [[Ala^1,Arg^19]hPTH-(1-28)]","EC50 for PLC activation, HKRK B7 cells",human PTH-1 receptor [3],200 nM
same,fold improvement of EC50 for PLC activation over [Ala^1]hPTH-(1-28),human PTH-1 receptor [3],5 fold
SVSEIQLMHNLGKHLNSMRRVEWLRKKL-NH2 (Analog of hPTH-(1-28)) [[Arg^19]hPTH-(1-28)],"EC50 of PLC activation, HKRK B7 cells",human PTH-1 receptor [3],300 nM
same,IC50,human PTH-1 receptor [5],100 nM
VSEIQLMHNLGKHLNSMERVEWLRKKLQDVHNY-NH2 [hPTH-(2-34)],"PLC Activity (% Basal), 1000 nM peptide, transfected HEK-293 cells",human PTH-1 receptor [4],88 % Basal
SVSEIQLMHNLGKHLNSMERVEWLRKK-NH2 [hPTH-(1-27)],"EC50 of AC activation, HKRK B7 cells",human PTH-1 receptor [3],100 nM
same,fold loss of AC activity on removal of Leu^28,human PTH-1 receptor [3],~100 fold
same,"PLC Activity (% Basal), 1000 nM peptide, transfected HEK-293 cells",human PTH-1 receptor [4],95 % Basal
GVSEIQLMHNLGKHLNSMERVEWLRKKL-NH2 (Analog of hPTH-(1-28)) [[Gly^1]hPTH-(1-28)],fold impairment of binding by the Gly^1 substitution (against hPTH-(1-28)),human PTH-1 receptor [5],~3 fold
same,fold enhancement of binding affinity by the Gly^1 substitution (against hPTH-(1-28)),rat PTH-1 receptor [6],2 fold
"GVSEIQLMHNLGKHLNSMRRVEWLRKKL-NH2 (Analog of hPTH-(1-28)) [[Gly^1,Arg^19]hPTH-(1-28)]","fold reduction of PLC potency, HKRK B7 cells",human PTH-1 receptor [3],~100 fold
same,"selectivity for activation of AC (vs. PLC), relative to hPTH-(1-34)",human PTH-1 receptor [3],> 40 fold
same,"fold impairment of EC50 for AC relative to hPTH-(1-34), EW5 cells",rat PTH-1 receptor [7],~6 fold
same,selectivity for AC vs. PLC,rat PTH-1 receptor [7],> 10 fold
same,fold greater binding affinity than for the human PTH-1 receptor,rat PTH-1 receptor [8],10 fold
same,fold impairment of binding by the Gly^1 substitution (against [Arg^19]hPTH-(1-28)),human PTH-1 receptor [5],~3 fold
same,fold improvement in binding affinity over [Gly^1]hPTH-(1-28),human PTH-1 receptor [5],5 fold
same,fold lower binding affinity than hPTH(1-34),human PTH-1 receptor [5],30 fold
same,fold reduction of binding relative to hPTH-(1-34),human PTH-1 receptor [5],~40 fold
same,fold enhancement of binding affinity by the Gly^1 substitution (against [Arg^19]hPTH-(1-28)),rat PTH-1 receptor [6],2 fold
same,fold impairment of binding affinity relative to hPTH-(1-34),rat PTH-1 receptor [6],~6 fold
same,fold lower binding affinity than hPTH-(1-34),rat PTH-1 receptor [6],7 fold
"SVSEIQLMHNLGKHLNSMERVEWLRKKLQ-NH2 (peptide, UniProt P01270 32-60, looked up) [hPTH-(1-29)]","EC50 of PLC activation (IP3 formation), HKRK B7 cells",human PTH-1 receptor [3],1000 nM
SVSEIQLMHNLGKHLNSMERVEWLRK-NH2 [hPTH-(1-26)],fold loss of AC potency against hPTH-(1-27),human PTH-1 receptor [3],10 fold
SVSEIQLMHNLGKHLNSMERVEWLRKKLQDVHNY-NH2 [hPTH-(1-34)],"PLC Activity (% Basal), 1000 nM peptide, transfected HEK-293 cells",human PTH-1 receptor [4],854 % Basal
